B1: mouse MIGA2 residues 275-570, wild type [mouse (Mus musculus)] / MSP domain of mouse VAPB (residues 1-125) fused to GST [mouse (Mus musculus)] (parent complex)
chain 1: GSLRLRADDEDSLTSEDSFFSATEIFESLQIGEYPLPLSRPAAAYEEALQLVKEGRVPCRTLRTELLGCYSDQDFLAKLHCVRQAFEGLLEERSNQIFFGEVGRQMVTGLMTKAEKSPKGFLESYEEMLSYALRPETWATTRLELEGRGVACMSFFDIVLDFILMDAFEDLENPPSSVLAVLRNRWLSDSFKETALATACWSVLKAKRRLLMVPDGFISHFYSVSEHVSPVLAFGFLGPKPQLSEVCAFFKHQIVQYLRDMFDLDNVRYTSVPALAEDILQLSRRRSEILLGYLGA
chain 2: MAKVEQVLSLEPQHELKFRGPFTDVVTTNLKLGNPTDRNVCFKVKTTVPRRYCVRPNSGVIDAGASLNVSVMLQPFDYDPNEKSKHKFMVQSMFAPPDTSDMEAVWKEAKPEDLMDSKLRCVFEL

Variants of: B1
Experiment: GST pull-down; parent: 0.01; read off a plot

| screen value | Variant |
| --- | --- |
| ~0.01 | chain 1 GSLRLRADDEDSLTSEDEFFSATEIFESLQIGEYPLPLSRPAAAYEEALQLVKEGRVPCRTLRTELLGCYSDQDFLAKLHCVRQAFEGLLEERSNQIFFGEVGRQMVTGLMTKAEKSPKGFLESYEEMLSYALRPETWATTRLELEGRGVACMSFFDIVLDFILMDAFEDLENPPSSVLAVLRNRWLSDSFKETALATACWSVLKAKRRLLMVPDGFISHFYSVSEHVSPVLAFGFLGPKPQLSEVCAFFKHQIVQYLRDMFDLDNVRYTSVPALAEDILQLSRRRSEILLGYLGA [chain 1 S18E] |
| ~1 | chain 1 GSLRLRADDEDSLTSEDEFFDATEIFESLQIGEYPLPLSRPAAAYEEALQLVKEGRVPCRTLRTELLGCYSDQDFLAKLHCVRQAFEGLLEERSNQIFFGEVGRQMVTGLMTKAEKSPKGFLESYEEMLSYALRPETWATTRLELEGRGVACMSFFDIVLDFILMDAFEDLENPPSSVLAVLRNRWLSDSFKETALATACWSVLKAKRRLLMVPDGFISHFYSVSEHVSPVLAFGFLGPKPQLSEVCAFFKHQIVQYLRDMFDLDNVRYTSVPALAEDILQLSRRRSEILLGYLGA [chain 1 S18E, chain 1 S21D] |
| ~0.4 | chain 1 GSLRLRADDEDSLTSEDSFFDATEIFESLQIGEYPLPLSRPAAAYEEALQLVKEGRVPCRTLRTELLGCYSDQDFLAKLHCVRQAFEGLLEERSNQIFFGEVGRQMVTGLMTKAEKSPKGFLESYEEMLSYALRPETWATTRLELEGRGVACMSFFDIVLDFILMDAFEDLENPPSSVLAVLRNRWLSDSFKETALATACWSVLKAKRRLLMVPDGFISHFYSVSEHVSPVLAFGFLGPKPQLSEVCAFFKHQIVQYLRDMFDLDNVRYTSVPALAEDILQLSRRRSEILLGYLGA [chain 1 S21D] |

Reference: publication PMC9239997, “Structural basis for mitoguardin-2 mediated lipid transport at ER-mitochondrial membrane contact sites” (Nature Communications, 2022)
